Data published in patent publication US20240166738A1 (Alector, published 2024).
Changes are numbered by the printed parent chain.

B1: TM-51 (antibody, V domains shown)
VH: QVQLQQPGAELVKPGASVKLSCKASGYTFTTYWIDWVKQRPGQGLEWIGNMFPGSSRTNYNEKFKSRATLTVDTSSSTAYMQLSSLTSDDSAVYYCARKEGLWTYGYDGGAWFAYWGQGTLVTVSA
VL: DIVMSQSPSSLAVSVGEKVTMSCKSSQSLRNSRTRKNYLAWYQQKPGQSPKLLIYWASTRESGVPDRFTGSGSGTDFTLTISSVQAEDLAIYYCKQSYNLLTFGAGTKLELK
B2: TM-54 (antibody, V domains shown)
VH: QVQMQQSGPVLVKPGASVTLSCKASGYTFTTYDLNWVKQRPGQGLEWIGWIYPRGGSTEYNEKFKGKATLTVDTSSSTAYMELHSLTSEDSAVYFCAKYSIYAMDYWGQGTSVTVSS
VL: DVLMTQTPLSLPVSLGDQASISCRSSQSIVHGNGNTYLEWYLQKPGQSPKLLIYKVSNRFSGVPDRFSGSGSGTDFTLKISRVEAEDLGVYYCFQGSHVPWTFGGGTKLEMK
B3: TM-22 (antibody, V domains shown)
VH: QVQLQQSGPELVKPGASVKISCKASGYRFTSYYIHWVKQRPGQGLEWIGWIYPGNGITNYNEKFKGKATLTADTSSSTAYMQLSSLTSEDSAVYYCASPYYGIRNCYFDVWGTGTTVTVSS
VL: B2 VL with Q18H, S26G, G32S, V90I, M111I
B4: TM-1 (antibody, V domains shown)
VH: QVQLQQSGAELVRPGTSVKVSCKASGYAFTNYLIEWVKQRPGQGLEWIGVINPGSGGTKYNEKLKGKATLTADKSSSTAYMQLSSLTSVDSAVYFCARRGYTIYDFYAMDYWGQGTSVTVSS
VL: B2 VL with Q18H, H31Y, G32N, G96V, W101F, G105S, M111I
B5: TM-19 (antibody, V domains shown)
VH: DVQLQQSGAELVRPGASVKLSCTASGFNIKDYYMYWVKQRPEQGLEWIGRIDPEDGDTENAPKFRGMATMTADTSSNTAYLQLNSLTSEDTAVYYCTTRIGNLYHVMDYWGHGTSVTVSS
VL: B2 VL with G32S, S48A, Y54D, S57F, W101F, G105S, M111I
B6: TM-3 (antibody, V domains shown)
VH: QVTLKESGPGIVQPSQTLSLTCSFSGFSLNTLGRGVGWIRQPSGKGLEWLAKIWWNDDKFYYPALKSRLTISKDTSKNQIFLKIANVDTADSATYYCARIAGGTGAAYWGQGTTLTVSS
VL: DIVMTQAAFSNPVTLGTSASISCRSSKSLLHSNGITYLYWYLQKPGQSPQLLISQMSSLASGVPDRFSSGGSGTDFTLRISRVEAEDVGVFYCAQNLELPWTFGGGTKLELK
B7: TM-34 (antibody, V domains shown)
VH: EVQLVESGGGLVKPGGSLKLSCAASGFSFSDSGMDWVRQAPEKGLEWFAYISSGSSTTHYADTVKGRFIISRDNAKNTLFLQMTSLRSEDTAMYYCVRRDGNYWYFDVWGTGTTVTVSS
VL: QIVLSQSPVILSASPGEKVTMTCRATSSVTYMHWYQLKPGSSPKPWIYATSNLASGVPARFSGSGSGTSYSLTISRVEAEDAATYYCQQWSSNPYTFGGGTKLEIK
B8: TM-18 (antibody, V domains shown)
VH: EVRLQQSGPELVKPGASVKISCKTSGYTFTDYYMNWVKQSHGKSLEWIVNINPNNGDAFYNQKFKGKATLTVDKSSNTAYLDLRSLTSEDSAVYYCAREGQLRLRRVYAMDYWGQGTSVTVSS
VL: DIVLAQSPASLAVSLGQRATISCRASKSVSISVYTYVHWYQQKPGQPPKLLIYLASNLESGVPARFSGSGSGTDFTLNIHPVEEEDAATYYCQHSRELPYTFGGGTKLEIK
B9: TM-5 (antibody, V domains shown)
VH: QVQLQQSGTELARPGASVKVSCKASGYIFTTYGITWVKQRGGQGLEWIGEIYPRSDNTYYNEKFKDKATLTADKSSSTAYMELRSLTSEDSAVYFCARSKGSGTGDYWGQGTTVTVSS
VL: DIQMTQSPASLSASVGETVTITCRASENIYIYLAWYQQKQGKTPQLLVYNGKMLAENVPSRFSGSGSGTQFSLKINSLQPEDFGSYYCQHHYGSPPAFGAGTKLELK
B10: TM-79 (antibody, V domains shown)
VH: EVQLQQSGPELVKPGASVKMSCKASGYTFTNYVMHWLKQKPGQGLEWIAHITPHNDGTKYNEKFKGKATLTSDRSSSTAYMELNSLTSEDSAIYYCARSGQFGRGDYFHYWGQGTTVTVSS
VL: DIVLTQSPASLAVSLGQRATISCRASKSVSTSGSIYIHWYQQKPGQPPKLLIYLTSNLESGVPARFSGSGSGTDFTLNIHPVEEEDAATYYCQHSGELPWTFGGGARLEIK
B11: TM-80 (antibody, V domains shown)
VH: QVQLQQPGAELVKPGASVKLSCKASGYTFTTFWMHWVKQRPGQGLEWIGNIDPSDSETHYNQEFKDKATLTVDRSSNTAYMQLSSLTSEDSAVYYCARSSNWDNFDYWGQGTAVTVSS
VL: DIVMTQAAPSVPVTPGESVSISCRSSQSLLHVNGHTYLYWFLQRPGQSPQLLIYRMSNLASGVPDRFSGSGSGTVFTLRISRVETEDVGIYYCMQHLQYPFTFGSGTKLEIK
B12: TM-42 (antibody, V domains shown)
VH: QVQLQQSGAELAKPGASVKLSCKASGYTFTNYWMHWVKKRPGQGLEWIGYINPSSGYTKYNQKFKDKATLTADKSSNTAYMQLSSLTYEDSAVYYCTREGGSISDWYFDVWGTGTTVTVSS
VL: B11 VL with V11L, Q27K, V32S, H35N, V75A, T85A, I90V, Q98E, F101Y, S105G
B13: TM-50 (antibody, V domains shown)
VH: QVQLKESGPVLVAPSQSLSITCTVSGFSLTNYGVHWVRQPPGKGLEWLGVIWAGGNTNYNSALMSRLSISKDNSKSQVFLKMNSLQTDDTAMYYCAKEAKLLRSYAMDYWGQGTLVTVSA
VL: DVQMTQTTSSLSASLGDRVTISCRASQDINNYLYWYQQKPDGTVKLLIYYTSMLHSGVPSRFSGSGSGTDYSLTISNLEQEDIATYFCQQGSTLMYTFGGGTKLEIK
B14: TM-15 (antibody, V domains shown)
VH: QVQLQQPGAEFVRPGASVKLSCKASGYTFTNYWITWVKQRPGHGLEWIGDIYPGSGNSNYNESFKRKATLTVDTSSSTAYMHLSSQTSEDSAVYFCARKAYGGFPYWGQGTLVTVSA
VL: DIQMTQSPASLSVSVGETVTITCRVSENIYNNLAWYQQKQEKSPQLLVFAATNLADGVPSRFSGSGSGTQFSLKINSLQSEDFGTYYCQHFWDTPFTFGSGTKLEIK
B15: TM-83 (antibody, V domains shown)
VH: QVQLQQPGTELVKPGALVKLSCKASGYTFTTYWIHWVKQRPGQGLEWIGNINPSNGNTKNNERFKTKATLTVDKSSSTAYMQLSSLTSEDSAVYYCVRGDYYGTSYPFWGQGTLVTVSS
VL: DVVMTQTPLSLPVSLGDQASISCRSSQSLVHSNGITYLHWYLQKPGQSPKLLIYKVSNRFSGVPDRFSGSGSGTDFTLKISRVEAEDLGVYFCSQSTHVPYTFGGGTKLEIK
B16: TM-7 (antibody, V domains shown)
VH: EVQLQQSGPVLVKPGPPVKISCKASGFTFTDYYIHWVKLSHGKSLEWIGLVYPYNGDTDYNQKFKGKATLTVDTSSSTAYMELNSLTSEDSAVYYCARTYYANSPDYWGQGTTVTVSS
VL: DIVMTQSPSSLSVSAGEKVTMSCKSSQSLLNSGNQRNYLAWYQQKPGQPPKLLIYGASTRESGVPDRFTGSGSGTDFTLTISNVQAEDLAVYYCQNDHSYPLTFGAGTKLELK
B17: TM-47 (antibody, V domains shown)
VH: B13 VH with L115S, A120S
VL: B16 VL with S12T, S14T, R36K, A40T, G56W, N83S, H98Y, L112I
B18: TM-46 (antibody, V domains shown)
VH: QVQLQQSGADLVKPGASVKISCKASGYAFSSFWMNWVKLRPGKGLEWIGQIYPGDGDTDYNGKFKDKATLTADTSSNTAYMQLSRLTSEDSAVYFCARGDGFSYFDYWGQGTILTVSS
VL: QIVLTQSPVIMSASPGERVTMTCCASSRVNYMHWYQQKSGSYPKRWIYDTSKLASGVPGRFSGSGSGTSYSLTISSMEAEDAATYYCQQWSSNPPTFGGGTKLEIK
B19: TM-39 (antibody, V domains shown)
VH: HVQRQQSGTELAKPGASVKLSCKTSGYTFTDYWMHWIKQRPGQGLEWIGFINPSSGYTKYNQNFKDKATLTADKSSSTAYMQLSSLTYEDSAVFYCAREAGSISDWYFDVWGTGTTVTVSS
VL: DIVMTQAAPSIPVTPGESVSISCRSSKTLLNSNGNTYLYWFLQRPGQPPQLLIYRMSNLASGVPDRFSGSGSGTAFTLRISRVEAEDVGVYYCMQHLDYPYTFGGGTQLEIK
B20: TM-77 (antibody, V domains shown)
VH: QIQLQQSGAELVRPGASVKLSCKASGYTFTDYEMHWVKQTPVHGLEWIGVIDPETGGTAYNQMFKGKATLTADKSSSTAYMDLRSLTSEDSAVYYCVKYGIEGYWGQGTTLTVSS
VL: DVVMTQIPLTLSVTLGQPASISCKSSQSLFHSNGKTYLNWLLQRPGQSPKLLIYMVSKLESGVPDRFSGSGSGTDFTLKISRVEAEDLGVYYCLQVTHFPLTFGAGTKLELK
B21: TM-26 (antibody, V domains shown)
VH: QVQLQQSGAELIRPGTSVKVSCKASGYAFTNYLIEWVKKRPGQGLEWIGVINPGSGITNYNEKFKGKATLTADKSSSTAYMQLSSLTSEDSAVYFCARSDFITTVVADYWGQGTTVTVSS
VL: DIVVTQTPLSLPVSFGDQVSISCRSSQSLTNYYGNTYLSWYLHKPGQSPQLLIYGISNRFSGVPDRFSGSGSGTDFTLKISTIKPEDLGMYYCLQGTHQPRTFGGGTKLEIK
Note: test concentration or dose not given here.

These binders were tested against human TMEM106B (human, UniProt Q9NUM4 2-274) (assay: cell-based or functional assay).
For B1, the “% Protection from CPE” value was 5.4%. With B2 the “% Protection from CPE” value was 68.1%. With B3 the “% Protection from CPE” value was 4.4%. With B4 the “% Protection from CPE” value was 6.4%. B5 was tested, and the “% Protection from CPE” value was 99.8%. B6 was tested, and the “% Protection from CPE” value was 97.2%. B7 was tested, and the “% Protection from CPE” value was 4.1%. For B8, the “% Protection from CPE” value was 100%. With B9 the “% Protection from CPE” value was 63.3%. With B10 the “% Protection from CPE” value was 4.5%. B11 was tested, and the “% Protection from CPE” value was 78%. In the case of B12, the “% Protection from CPE” value is reported as 28.4%. B13 was tested, and the “% Protection from CPE” value was 3.9%. In the case of B14, the “% Protection from CPE” value is reported as 63.5%. B15 was tested, and the “% Protection from CPE” value was 4.3%. In the case of B16, the “% Protection from CPE” value is reported as 15.8%. For B17, the “% Protection from CPE” value was 3.8%. B18 was tested, and the “% Protection from CPE” value was 4.7%. With B19 the “% Protection from CPE” value was 4.2%. For B20, the “% Protection from CPE” value was 4.7%. In the case of B21, the “% Protection from CPE” value is reported as 4.3%.
